test system: Escherichia coli TOP10; test: shrunken log2 fold change of peptide-encoding DNA abundance (4.5 h post-induction vs induction); higher = less antimicrobial activity (less host growth inhibition); conditions: time post-induction: 4.5 h; library: site-saturation at positions 5, 18, 19, 20
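Also: peptides expressed intracellularly from a pBAD plasmid library in pooled LB shake-flask culture, induced with 0.3% L-arabinose, DNA abundance read by NGS, three biological replicates, DESeq2 with apeglm shrinkage.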

Row | Sequence | shrunken log2 fold change
1 | RRIRTRPPRLPRPRPRPVWSPRP | -0.00993
2 | RRIRTRPPRLPRPRPRPVYEPRP | 0.00717
3 | RRIRTRPPRLPRPRPRPVYHPRP | -1.34
4 | RRIRTRPPRLPRPRPRPVYLPRP | -1.16
5 | RRIRTRPPRLPRPRPRPWCEPRP | 0.0211
6 | RRIRTRPPRLPRPRPRPWDHPRP | -0.155
7 | RRIRTRPPRLPRPRPRPWDQPRP | -0.00674
8 | RRIRTRPPRLPRPRPRPWDVPRP | -0.092
9 | RRIRTRPPRLPRPRPRPWEMPRP | -0.0783
10 | RRIRTRPPRLPRPRPRPWERPRP | -0.0102
11 | RRIRTRPPRLPRPRPRPWFCPRP | -0.392
12 | RRIRTRPPRLPRPRPRPWGDPRP | -0.273
13 | RRIRTRPPRLPRPRPRPWGEPRP | 0.183
14 | RRIRTRPPRLPRPRPRPWGFPRP | 0.0102
15 | RRIRTRPPRLPRPRPRPWGHPRP | -0.066
16 | RRIRTRPPRLPRPRPRPWGVPRP | -0.0284
17 | RRIRTRPPRLPRPRPRPWHMPRP | 0.0039
18 | RRIRTRPPRLPRPRPRPWLQPRP | -0.187
19 | RRIRTRPPRLPRPRPRPWMCPRP | 0.0404
20 | RRIRTRPPRLPRPRPRPWMQPRP | -0.0757
21 | RRIRTRPPRLPRPRPRPWNQPRP | -0.543
22 | RRIRTRPPRLPRPRPRPWPAPRP | 0.61
23 | RRIRTRPPRLPRPRPRPWPCPRP | -0.0128
24 | RRIRTRPPRLPRPRPRPWQPPRP | -0.0263
25 | RRIRTRPPRLPRPRPRPWRWPRP | 0.554

Row | Sequence | shrunken log2 fold change
26 | RRIRTRPPRLPRPRPRPWSQPRP | 0.0431
27 | RRIRTRPPRLPRPRPRPWSVPRP | -0.199
28 | RRIRTRPPRLPRPRPRPWSWPRP | -0.0374
29 | RRIRTRPPRLPRPRPRPWVMPRP | -0.125
30 | RRIRTRPPRLPRPRPRPWWGPRP | 0.221
31 | RRIRTRPPRLPRPRPRPYCWPRP | -0.109
32 | RRIRTRPPRLPRPRPRPYDKPRP | -0.389
33 | RRIRTRPPRLPRPRPRPYFHPRP | -0.909
34 | RRIRTRPPRLPRPRPRPYFSPRP | -0.156
35 | RRIRTRPPRLPRPRPRPYGDPRP | 0.00839
36 | RRIRTRPPRLPRPRPRPYGWPRP | -0.123
37 | RRIRTRPPRLPRPRPRPYHPPRP | -0.304
38 | RRIRTRPPRLPRPRPRPYIEPRP | -1.14
39 | RRIRTRPPRLPRPRPRPYIMPRP | -0.753
40 | RRIRTRPPRLPRPRPRPYISPRP | -0.382
41 | RRIRTRPPRLPRPRPRPYIYPRP | -0.706
42 | RRIRTRPPRLPRPRPRPYKFPRP | 0.00477
43 | RRIRTRPPRLPRPRPRPYKLPRP | -0.215
44 | RRIRTRPPRLPRPRPRPYKYPRP | -1.14
45 | RRIRTRPPRLPRPRPRPYMHPRP | -0.685
46 | RRIRTRPPRLPRPRPRPYMYPRP | -0.767
47 | RRIRTRPPRLPRPRPRPYPEPRP | -0.817
48 | RRIRTRPPRLPRPRPRPYPVPRP | 0.154
49 | RRIRTRPPRLPRPRPRPYPYPRP | -0.0787
50 | RRIRTRPPRLPRPRPRPYQKPRP | -0.197

Row | Sequence | shrunken log2 fold change
51 | RRIRTRPPRLPRPRPRPYQSPRP | -0.465
52 | RRIRTRPPRLPRPRPRPYRFPRP | -0.0191
53 | RRIRTRPPRLPRPRPRPYRTPRP | 0.0638
54 | RRIRTRPPRLPRPRPRPYSFPRP | -0.552
55 | RRIRTRPPRLPRPRPRPYTYPRP | -0.489
56 | RRIRTRPPRLPRPRPRPYVPPRP | -0.1
57 | RRIRTRPPRLPRPRPRPYWQPRP | -0.435
58 | RRIRTRPPRLPRPRPRPYYEPRP | -0.0557
59 | RRIRVRPPRLPRPRPRPAAKPRP | 0.348
60 | RRIRVRPPRLPRPRPRPAANPRP | -0.00167
61 | RRIRVRPPRLPRPRPRPAARPRP | 0.47
62 | RRIRVRPPRLPRPRPRPACMPRP | -0.0781
63 | RRIRVRPPRLPRPRPRPADIPRP | -0.235
64 | RRIRVRPPRLPRPRPRPAEAPRP | 0.729
65 | RRIRVRPPRLPRPRPRPAEVPRP | 0.00588
66 | RRIRVRPPRLPRPRPRPAFNPRP | -0.416
67 | RRIRVRPPRLPRPRPRPAFPPRP | 0.246
68 | RRIRVRPPRLPRPRPRPAFQPRP | 0.151
69 | RRIRVRPPRLPRPRPRPAIAPRP | 0.107
70 | RRIRVRPPRLPRPRPRPAIKPRP | -0.202
71 | RRIRVRPPRLPRPRPRPAKYPRP | -0.575
72 | RRIRVRPPRLPRPRPRPALCPRP | 0.555
73 | RRIRVRPPRLPRPRPRPAMFPRP | -0.0685
74 | RRIRVRPPRLPRPRPRPAMQPRP | 0.193
75 | RRIRVRPPRLPRPRPRPANHPRP | -0.0489

Row | Sequence | shrunken log2 fold change
76 | RRIRVRPPRLPRPRPRPAQDPRP | 0.0947
77 | RRIRVRPPRLPRPRPRPAQWPRP | 0.188
78 | RRIRVRPPRLPRPRPRPARGPRP | 0.681
79 | RRIRVRPPRLPRPRPRPARHPRP | 0.287
80 | RRIRVRPPRLPRPRPRPARRPRP | 0.382
81 | RRIRVRPPRLPRPRPRPASQPRP | 0.128
82 | RRIRVRPPRLPRPRPRPASTPRP | -0.311
83 | RRIRVRPPRLPRPRPRPATVPRP | -0.154
84 | RRIRVRPPRLPRPRPRPAVDPRP | 0.192
85 | RRIRVRPPRLPRPRPRPAVSPRP | 0.0786
86 | RRIRVRPPRLPRPRPRPAWHPRP | 0.657
87 | RRIRVRPPRLPRPRPRPAWMPRP | 0.0871
88 | RRIRVRPPRLPRPRPRPCAFPRP | -0.264
89 | RRIRVRPPRLPRPRPRPCAWPRP | 0.27
90 | RRIRVRPPRLPRPRPRPCAYPRP | -0.336
91 | RRIRVRPPRLPRPRPRPCDPPRP | -0.107
92 | RRIRVRPPRLPRPRPRPCFPPRP | 0.228
93 | RRIRVRPPRLPRPRPRPCGCPRP | 0.0165
94 | RRIRVRPPRLPRPRPRPCGIPRP | 0.0878
95 | RRIRVRPPRLPRPRPRPCHKPRP | -0.203
96 | RRIRVRPPRLPRPRPRPCIQPRP | -0.00992
97 | RRIRVRPPRLPRPRPRPCKMPRP | -0.159
98 | RRIRVRPPRLPRPRPRPCPHPRP | -0.0391
99 | RRIRVRPPRLPRPRPRPCPTPRP | -0.17
100 | RRIRVRPPRLPRPRPRPCQMPRP | -0.486

Row | Sequence | shrunken log2 fold change
101 | RRIRVRPPRLPRPRPRPCQWPRP | -0.0851
102 | RRIRVRPPRLPRPRPRPCRCPRP | -0.239
103 | RRIRVRPPRLPRPRPRPCSEPRP | -0.128
104 | RRIRVRPPRLPRPRPRPCTMPRP | -0.193
105 | RRIRVRPPRLPRPRPRPCTPPRP | -0.13
106 | RRIRVRPPRLPRPRPRPCVKPRP | -0.657
107 | RRIRVRPPRLPRPRPRPCWLPRP | -0.0153
108 | RRIRVRPPRLPRPRPRPCWYPRP | -0.544
109 | RRIRVRPPRLPRPRPRPDAAPRP | 0.976
110 | RRIRVRPPRLPRPRPRPDAFPRP | 0.203
111 | RRIRVRPPRLPRPRPRPDARPRP | 0.262
112 | RRIRVRPPRLPRPRPRPDCDPRP | -0.102
113 | RRIRVRPPRLPRPRPRPDCEPRP | -0.0964
114 | RRIRVRPPRLPRPRPRPDCFPRP | 0.0303
115 | RRIRVRPPRLPRPRPRPDDAPRP | 0.134
116 | RRIRVRPPRLPRPRPRPDEKPRP | 0.11
117 | RRIRVRPPRLPRPRPRPDEQPRP | 0.353
118 | RRIRVRPPRLPRPRPRPDFCPRP | 0.183
119 | RRIRVRPPRLPRPRPRPDFMPRP | -0.0875
120 | RRIRVRPPRLPRPRPRPDFVPRP | -0.0423
121 | RRIRVRPPRLPRPRPRPDIWPRP | 0.0543
122 | RRIRVRPPRLPRPRPRPDLFPRP | -0.045
123 | RRIRVRPPRLPRPRPRPDPKPRP | 0.203
124 | RRIRVRPPRLPRPRPRPDRHPRP | -0.0428
125 | RRIRVRPPRLPRPRPRPDTPPRP | -0.0915

Row | Sequence | shrunken log2 fold change
126 | RRIRVRPPRLPRPRPRPDTTPRP | -1.05
127 | RRIRVRPPRLPRPRPRPDVLPRP | 0.00338
128 | RRIRVRPPRLPRPRPRPDVYPRP | -0.0411
129 | RRIRVRPPRLPRPRPRPDWRPRP | 0.141
130 | RRIRVRPPRLPRPRPRPEEDPRP | 0.0704
131 | RRIRVRPPRLPRPRPRPEEPPRP | 0.0911
132 | RRIRVRPPRLPRPRPRPEHMPRP | -0.0512
133 | RRIRVRPPRLPRPRPRPEHWPRP | 0.28
134 | RRIRVRPPRLPRPRPRPEIAPRP | -0.0307
135 | RRIRVRPPRLPRPRPRPEIFPRP | 0.00503
136 | RRIRVRPPRLPRPRPRPEKQPRP | 0.101
137 | RRIRVRPPRLPRPRPRPELEPRP | 0.292
138 | RRIRVRPPRLPRPRPRPELMPRP | -0.0669
139 | RRIRVRPPRLPRPRPRPELRPRP | 0.123
140 | RRIRVRPPRLPRPRPRPEMFPRP | -0.0822
141 | RRIRVRPPRLPRPRPRPEMKPRP | -0.184
142 | RRIRVRPPRLPRPRPRPENAPRP | 0.173
143 | RRIRVRPPRLPRPRPRPENPPRP | 0.0444
144 | RRIRVRPPRLPRPRPRPENYPRP | -0.0159
145 | RRIRVRPPRLPRPRPRPEPRPRP | 0.708
146 | RRIRVRPPRLPRPRPRPEPVPRP | 0.365
147 | RRIRVRPPRLPRPRPRPEPYPRP | -0.2
148 | RRIRVRPPRLPRPRPRPEQHPRP | 0.262
149 | RRIRVRPPRLPRPRPRPEQLPRP | 0.185
150 | RRIRVRPPRLPRPRPRPEQMPRP | 0.212

From the supplement of paper PMC9112550, “Optimization of the antimicrobial peptide Bac7 by deep mutational scanning” (BMC Biology, 2022)
